This series can be described thus: label from the status in PepcDB records.

Consider “MSSDHRDQYYWRAKRDQFRSRAAYKLEFLIERYGIIKDGQAVLEIGSSPGGWTQVLVDHGCRVVAVDIQPMDEIPGVIFLKLNILREDAAERIREEMARSLVQRFDVVLSDAMAKTSGIRSSDHAASVMIGNAVMKIAMDTLRRGGVAVVKQFQGDMTGDFIKNWGHYFRDHRITKPPASRKESSEVYIIFYGFSGKETDNSVQG”, for which the protein production result was “failed”.

“MSSEVQKGPRALTVGRGDGRIWGMSSAERLARIYRRLDLVETPAVDLSHPVVAVDAGWVFDESLIKALAGREGAVLVDDAGRAVAVHAPADLAYAASEALAAGNDPAGLDPRFTRLTALELGSAYNSALRKREPPVLERLTPETVRAVEKRLFQGSYKGVTDFVTKYVWPAPARVVTRWCALAKMTPNQVTFIGFVMVLAATWLFWHGHFGWGLVCAWIMTFLDTVDGKLARVTLTSSKWGNVFDHGIDLVHPPFWWWAWFVGVYAVGQEIPYAALSLAIVVGGYVAQRVEEGIFLALFKLEMHAWRPFDSFFRLITARRNPNLILLTGCAMVGRPDLGFTLVAIWTAVCFVVHAIQILQGLMAPKGSIQSWLAK”: the protein production entry is “failed”. With “MSSFRSAWAGAPAGIAVARTGQSVPLLNAAAALAVAMAVGGWLSGARHASAIDATQIESWRAMVAQAMEPQALRQLRQLARGGSTPARTALGEALLDSRDASLRHEGVRWLEAAAQPADGAPGDARAQLALGKALLLGTGGVARDYPRALHLLRQAADRGDAAAAYYLGLMYRSGYGTAANTALAAHWFDGAARHGIPAAMFMLANAYRDGDGVPRDEARALALYEQAAEHELPEAVQALAMAYQNGELGLARDDAAFRKQWLETAHALKHPALTP”, the protein production result was “failed”.

On to “MSSFSLAVRDSSTMLRRNLLHARRYPSLTLNLLLTPVMLLLLFVYIFGDTMSGGAGRSAYIAYIVPGILLMTIGSTTIGTAVSVSTDMNEGIIARFRTMAIHRSSVLFGHVAGSVLQAIMSVVLVGAVGVAMGFRSTDATVLEWLAAFGLLALFALAFTWIAVGMGLGSPNAEAASNNAMPLILLPLISSAFVPLDSMPGWFQPIAEYQPFTPAIETLRGLLLGTEIGNNWWIALAWCLGLTVLGHRWSKAQFNRDPK”, for which the protein production entry is given as “failed”. In the case of “MSSKQWRWIPNALTFLRMVLIVPFAGALLEGNYRLSLVIFFVAALTDAFDGFLARHFNWRSRLGAVADPLADKALLISAYLMLTITGVLPLWLFALVLGRDLVIVCGGLAFHYGIGRFDMEPSIPGKINTFVQILVALAIIILLAGLPMQPWVIDTGIWLVAVSALVSGGHYVAVWSLRAWRAKRS” it was “failed”; in that of “MSSKRLVIVGGGITGLAAAYYAERAFPDLNITLLEAGERLGGKVATYREDGFTIERGPDSYVARKHILTDLIEAIGLGEKLVRNNTSQAFILDTGGLHPIPKGAVMGIPTDLDLFRQTTLLTEEEKQEVADLLLHPSDSLRIPEQDIPLGEYLRPRLGDALVEKLIEPLLSGIYAGNIDQMSTFATYPQFVANEQKAGSLFEGMRLMRPLDQLPQTPQTTIKATGQFLSLETGLESLIERLEEVLERSEIRLETPLLAISREDGRYRLKTDHGPEYADYVLLTIPHPQVVQLLPDAHLPELEQLTTHSTATVTMIFDQQQSLPIEGTGFVVNRRAPYSITACTAIDQKWNHSAPDHTVLRAFVGRPGNDHLVHESDEVLQQAVLQDLEKICGRTLEPKQVIISRLMDGLPAYTVGHADRIQRVREEVLAQYPGIYLAGLAYDGVGLPDCVASAKTMIESIELEQSHTDESVNET”, “not failed”; in that of “MSSLALRSPALALALTLGGLLLCGPVQAQQANSANDMVGRMQYRISELERLVQDLTGKVEQSLYENRQLQTKLENAQSDIDFRLNALESAGPAAAAPANSVPSSARPTASAGAGKQGTPAPAEGVLGFPGKTAPAQGAASAARPAAAGALPAGSENDQYNYAFSLLRNADYPAAEQAFKAFLDQHPKGSLAGNAQYWLGETYYVRGDYEQAAVAFMGGYQSHPDSSKGPDNLLKLGLAMANLGKSKEACAAFGRLESQYPKAADAIKRRAKEGMSKLGC”, “failed”. As for “MSSLGSRSSTSIQPVILCGGSGTRLWPLSRQSYPKQFMPLLGGRSLLALTLERVSGLSSHPWCVASTEHRFLVIDAFEQCQLNGQVLLEPSARNTAAAIAVAALHAEDDALLLFCPADHYIPDAPAFVERVRQAQVAALDGALVTFGVFPTYPSSAYGYIEASAPWQDSGALHVQRFIEKPSATQAAELLLKGNMYWNAGIFLGLAREWRRALELHAPDILAACRDALREAESPVISRSGQTTVQSVVLHEPSFDACRSQSIDYAVMEHHRPICAVPFNGAWSDVGSWNAVADLSSADDKGNSSQGDAHLFDCQRTYVHAAGRRPVVALGLEDVCIVDTDDAVLVMPMSRAEDIKSVVGQLTDRSVAQALLHRRVARPWGWYDSLDQGERFQVKRIGVKPGASLSLQLHHHRAEHWTVVKGTAEITCGDRVFLLSENQSTYIPLGQRHRLHNPGKVELEIIEVQSGSYLAEDDIVRLEDNYGRTAPHCPGPAEADSTLIEQ”, the protein production result is “failed”. With “MSSLKDNYQSKVKAYQPSPPYVLNCIKAFLVGGLICTIGQAFQNFYMAVFHFDEKTAGNPTVATLILISALLTGLGVYDRIGQFAGAGSAVPVTGFANSMTSAALEHKSEGYVLGVGTNMFKLAGNVIVFGVVAAYIVGMIRFAFDKLF”, the protein production entry was “failed”. In the case of “MSSLLPEKWGEALERVHDKVGHFLTRVMPWKKQEHFPERITADTLPAFMQSGGPLLDMHETADELIIRAEVPGLKNDDFSVGIVGRRLTIKGEKNIVRERKGGDGCLISECRYGSFARTLQLPYEIDEKAIAADLKHGVLTIRLPKPEKGRHARYRVPIS” it was “failed”; in that of “MSSLMIKLNLNYKLITKKTLPKLFYWGLGIVFFFLAPTTNAGSLSPYTTKELEQLEREFIQLINQSDSVERNPLASQYINSIGKKLAHYGRIKTPYFFIVKSKEINAFAGPGGYIGINTQLILTSSNESELAAVMAHEIAHVRLHHLYSIIEHQKQMRVPLLASILASAALGVLNPTVGMGAMMASVSGFSQDNINFTRSKEKEADRIGIDMLIKAGFNPQGMAAFFNKMQENSRYYYTANIPAILRTHPLDADRIAEAENRTSRLPKKHYTDSLDYALFKELIRVSVASNNKQILDYYEHHCHKKNPATACQYGYVLALLNNNNFQKAAEKLNPLLLQDNSNLNFQIAMAQAELGLSQYQSALSRLAELQNNFPDNYAALMAYAQGLLTANQPQKATAVLLKGSRQYKEDLPLCRELARAQAESHQKSYAYFTQAQCLLLEGQKRGAIAQLKVAQKLAKRDAYLSARISAKIDEIKFMVENLEHHHHHH”, “failed”. In the case of “MSSLNIKQGSDAHFPDYPLASPSNNEIDLLNLISVLWRAKKTVMAVVFAFACAGLLISFILPQKWTSAAVVTPPEPVQWQELEKTFTKLRVLDLDIKIDRTEAFNLFIKKFQSVSLLEEYLRSSPYVMDQLKEAKIDELDLHRAIVALSEKMKAVDDNASKKKDEPSLYTSWTLSFTAPTSEEAQTVLSGYIDYISALVVKESIENVRNKLEIKTQFEKEKLAQDRIKMKNQLDANIQRLNYSLDIANAAGIKKPVYSNGQAVKDDPDFSISLGADGIERKLEIEKAVTDVAELNGELRNRQYLVEQLTKANINDVNFTPFKYQLSPSLPVKKDGPGKAIIVILSALIGGMVACGSVLLRYAMASRKQDAMMADHLV”, the protein production result is “not failed”. In the case of “MSSLNNEEWDLLISGKKATLQYPIPLLCYPAPEVVSIAQIIDHTQLSLSATGSQIDVLCAEAKEYGFATVCVRPDYVSRAVQYLQGTQVGVTCVIGFHEGTYSTDQKVSEAKRAMQNGASELDMVMNYPWLSEKRYTDVFQDIRAVRLAAKDAILKVILETSQLTADEIIAGCVLSSLAGADYVKTSTGFNGPGASIENVSLMSAVCDSLQSETRVKASGGIRTIEDCVKMVRAGAERLGASAGVKIVNETRLGNRQVDEPMEPTNY” it was “not failed”; in that of “MSSLQGGISLTHIAAGIAVVALIILGVGFYAIYQELASLRSQVEGLNTRYEEISESLEEVQGAFESSRGDIESIASSLESIQDRVSKIEERLGSAATQSDLDAVARELASLTQQLEDLQARIQALEESGAEAGERLDQLAMALQDLQARLASLEERVDEVYASLYFPVTVVDGTGTPVVILERPERIVSMAPSATETLYYVGALDRVVGVDQYSDFPPELNEAKEAGEVEVIGGYWNPSIEAILSLEPDLVVGVASVPNHIQVKKVLSAYGIPVILLPDSSLEDVRESMMIVGKATGEVVGAYEAVLKFDMAVAAAGLLLEGVEPVETAVVVWPNPLFVVGGGTWEHEVIELAGGVNVYGDTQGWPQVSYESLLEADPDVIILMGGHGNSGVTVEGFIEALESQLGEAAWEIDAVASGRIYVLLDEYNDSFARPSPRTVLSIYVLAVLIQPSAFDIQPGDLPSEVSPETLDVLGLLEGRVPEEVLEFLGEALG”, “failed”.

Regarding “MSSNNINSIISKIQQKNTATVITVGNYKGGAGKTTNVVLLAYKLAKKGLKVCVLDLDPQSNATKSLLLTKSSLYQDEVVTIEKTLMTGISEKNLDGLEVKIMDNLYLLPSYIDFEDFPKYLYKNTSNQREEDYYLKNIFTPLQGKYDIVLIDVPPMSKAVTRNAVICSDYVLISLQTHERSLSGAESYVEELNKLHNEYDLDLEVVGVLPVIHKNNGSVDQYVMEVAKETFGEDNLFENVVPQMERIKRFDVNGITDKDRHDQKVLNLYDKVSDELLDRINYFEEEKEGAING”, the protein production entry is “not failed”. “MSSPLVLPSDGHYWLKNAHIPPNLVKTKVNFPENFQFPRPWEDLGLYHLEIADGKIKNIVAVGQGEESDLVTDDGVPRVDLSKRMILPCFVDMHTHLDKGHIWGRSPNVDGTFSGAIASTERDAELHHSPEDIYRRMEFALQCSYAHGTAAVRTHIEMAGQKSQIAWQTFQQLRQAWADRLTLQGVAMVTTDYYLGSAGEKLADQMAHGGGILGGVAYAGPQVEAQLTRLMTLAQARNLAIDLHVDENGDRRSRVLHQVAAIALKVGFTGQIVCGHCCSLDVQSPQQVQQTLALVKQANIAIISLPLCNLYLQGRHQPQKPAWRGITKVHAIHAEGIPLVFASDNCRDPFFPFGDHDGLEILNQSVRIGQLDPPYGHWCATVNQTPAQLMGLADYGRLAVNGPADLVIFPARYFSEIFSRPQGDRLVIRKGKPTHKKTPHYQELDDLMGA”: the protein production entry is “failed”. Next, “MSSPVVEIQIWSDLICPWCWIGKRRLERALRNSSLFADIKVRHRAFRLMPELIPLPVIDVLQQRYGGSAEQIVAIQQRIEKIAAEESLIYRLVGTQGADTLQAHRLLYLAHRQGLQEVLLERFYSAYFSEGTPIFDTDTLAPLALDVGLERTAVAALFAGQDFIAEIEDDQRRLQRYGANGVPFFLMDGRIAVNGAQPIEAFSDALAQLNADAASQSAFFLR”: “failed”; “MSSSSDAPLVATRWVEIGLALFTAALGAIVMYGSQDIGIGWGDSGPEAGYFPFYIGLLLSAASLGNLLLALCRWRALGTSFVARTAFRRVLAVFLPIAAYVAAMPFAGIYLASALFIAWFMWRDRSRDKPYGVPLIVTLSCGAALASYLVFAVWFKVPLDAGILVDLAAFVGSARP”: “failed”; “MSSSSGNQNSKEHKVAVTHDLGKTNVPEHPKRVVVLELGFIDTLLDLGITPVGVADDNKAKQLINKDVLKKIDGYTSVGTRSQPSMEKIASLKPDLIIADTTRHKKVYDQLKKIAPTIALNNLNADYQDTIDASLTIAKAVGKEKEMEKKLTAHEEKLSETKQKISANSQSVLLIGNTNDTIMARDENFFTSRLLTQVGYRYAISTSGNSDSSNGGDSVNMKMTLEQLLKTDPDVIILMTGKTDDLDADGKRPIEKNVLWKKLKAVKNGHVYHVDRAVWSLRRSVDGANAILDELQKEMPAAKKLEHHHHHH”: “failed”.

These data come from a protein production outcome set (Wang et al. 2014).
